Data taken from publication PMC4166925.

What was measured:
[1] = target: T1, PmTbr T-box (Patiria miniata) (UniProt A0A075Q982)
T1 sequence: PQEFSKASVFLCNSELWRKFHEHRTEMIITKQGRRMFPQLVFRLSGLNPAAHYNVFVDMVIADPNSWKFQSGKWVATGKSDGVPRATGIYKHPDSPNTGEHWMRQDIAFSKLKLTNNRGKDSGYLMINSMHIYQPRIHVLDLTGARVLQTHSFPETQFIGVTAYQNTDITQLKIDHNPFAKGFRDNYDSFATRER

[2] = target: T2, SpTbr T-box (Strongylocentrotus purpuratus) (UniProt A0A7M7RD59)
T2 sequence: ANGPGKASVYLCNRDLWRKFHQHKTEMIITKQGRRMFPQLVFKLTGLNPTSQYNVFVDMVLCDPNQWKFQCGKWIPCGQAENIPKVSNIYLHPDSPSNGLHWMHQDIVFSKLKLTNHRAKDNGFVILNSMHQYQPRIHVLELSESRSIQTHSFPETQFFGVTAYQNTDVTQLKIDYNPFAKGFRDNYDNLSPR

[3] = tested on: PmTbr DNA-binding domain (T-box) (Patiria miniata); assay: SPR (steady state); settings: SPR running buffer 50 mM Mops (pH not given; protein buffer 20 mM Mops pH 7.5), 150 mM NaCl, 1 mM DTT, 0.01% P20, 20 °C, 30 µl/min; streptavidin-coated CM5 …
[4] = tested on: SpTbr DNA-binding domain (T-box) (Strongylocentrotus purpuratus); assay: SPR (steady state); settings: SPR running buffer 50 mM Mops (pH not given; protein buffer 20 mM Mops pH 7.5), 150 mM NaCl, 1 mM DTT, 0.01% P20, 20 °C, 30 µl/min; streptavidin-coated CM5 …

Row | Sequence | binding signal (PBM E-score (-0.5 to 0.5)) [1] | binding signal (PBM E-score (-0.5 to 0.5)) [2] | Kd [3] | Kd [4]
1 | AACACCTC (double strand) [8-mer AACACCTC] | 0.491 | – | – | –
2 | AAGGTGTC (double strand) [8-mer AAGGTGTC] | – | 0.487 | – | –
3 | AAGTGTGA (double strand) [8-mer AAGTGTGA] | – | 0.488 | – | –
4 | ACACCTCC (double strand) [8-mer ACACCTCC] | 0.49 | – | – | –
5 | ACACCTCG (double strand) [8-mer ACACCTCG] | 0.49 | – | – | –
6 | AGGTGCGA (double strand) [8-mer AGGTGCGA] | 0.497 | 0.496 | – | –
7 | AGGTGCTA (double strand) [8-mer AGGTGCTA] | 0.491 | – | – | –
8 | AGGTGTCA (double strand) [8-mer AGGTGTCA] | 0.495 | 0.494 | – | –
9 | AGGTGTCG (double strand) [8-mer AGGTGTCG] | 0.492 | – | – | –
10 | AGGTGTGA (double strand) [8-mer AGGTGTGA] | 0.499 | 0.498 | – | –
11 | AGGTGTTA (double strand) [8-mer AGGTGTTA] | 0.496 | 0.494 | – | –
12 | AGTGTGAA (double strand) [8-mer AGTGTGAA] | – | 0.489 | – | –
13 | ATCACACC (double strand) [8-mer ATCACACC] | – | 0.488 | – | –
14 | CACACCTC (double strand) [8-mer CACACCTC] | 0.49 | 0.49 | – | –
15 | CTCACACC (double strand) [8-mer CTCACACC] | 0.491 | 0.494 | – | –
16 | CTTTAGGTGACAAACGGTTTTCCGTTTGTCACCTAAAG [PmTbr Secondary Site Hairpin] | – | – | 446 nM | 989 nM
17 | CTTTAGGTGTCGAACGGTTTTCCGTTCGACACCTAAAG [MmEomes Secondary Hairpin] | – | – | 732 nM | 882 nM
18 | CTTTAGGTGTGAAACGGTTTTCCGTTTCACACCTAAAG [Primary Tbr Site Hairpin] | – | – | 107 nM | 137 nM
19 | GACACCTC (double strand) [8-mer GACACCTC] | 0.49 | – | – | –
20 | GGGTGTGA (double strand) [8-mer GGGTGTGA] | 0.492 | 0.493 | – | –
21 | GGTGCGAA (double strand) [8-mer GGTGCGAA] | – | 0.487 | – | –
22 | GGTGTGAA (double strand) [8-mer GGTGTGAA] | 0.496 | 0.497 | – | –
23 | GTGTGAAA (double strand) [8-mer GTGTGAAA] | 0.49 | 0.49 | – | –
24 | GTGTGAAC (double strand) [8-mer GTGTGAAC] | – | 0.493 | – | –
